From patent US20230212643, “DNA NANOARCHITECTURES FOR PATTERN-RECOGNIZED […] OF DISEASES” (RENSSELAER POLYTECHNIC INSTITUTE, published 2023)

Molecular target: Dengue virus envelope protein domain III (ED3), on intact DENV serotype 2 virions (Dengue virus 2 (New Guinea C), UniProt P14340 P14340:576-674)
Experiment: inhibition; plaque reduction on Vero cells, DENV2 NGC in human serum, 37 C
Conditions: protein: virion; tags: none
Method: The in vitro inhibition of DENV through standard antiviral, plaque forming EC₅₀ assays was also examined. DENV viral particles were incubated with different concentrations of each inhibitor in human serum and the remaining infectivity was determined by a plaque reduction assay. The dose-dependent inhibition of DENV for the monovalent aptamer and each of the scaffold-aptamer complexes was examined (FIG. 5A). The EC₅₀ value (half maximal effective concentration) of the scaffold for DENV infection inhibition was 2 nM, whereas the EC₅₀ value of the monovalent aptamer was 15 μM (FIG. 5B).
For the in vitro inhibition of DENV (EC₅₀ and plaque assays), vero cells were seeded at a density of 3×10⁵ cells/3 mL MEM culture medium (with 10% FBS) in each well of a 6-well plate 72 h prior to infection. Approximately 200 plaque forming units of DENV serotype 2 (DENV2 NGC), after dilution in Hank's Balanced Salt Solution (HBSS) (GIBCO, Grand Island, N.Y.) including 0.4% (w/v) bovine albumin fraction V (BSA fraction V, GIBCO), were incubated at a 1:1 ratio in human serum (with or without an inhibitor). The mixtures were incubated in a 5% CO₂ incubator at 37° C. for 1 h. Then virus-inhibitor or virus-control mixtures were used directly to infect the confluent monolayer of Vero cells or diluted in MEM+2% FBS before being added onto the Vero cell monolayers. The inoculum was 100 μl/well. […]

Chain of Dengue virus envelope protein domain III (ED3), on intact DENV serotype 2 virions (P14340 576-674, one chain of several): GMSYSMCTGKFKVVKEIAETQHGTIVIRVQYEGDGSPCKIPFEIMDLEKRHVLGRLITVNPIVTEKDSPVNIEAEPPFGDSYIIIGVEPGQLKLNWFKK

Binder GCACCGGGAGGGAGGGAGGGCTTTT (ssDNA) [monovalent ED3-binding DNA aptamer] has an EC50 of 15 µM.
